Results reported in paper PMC6602975.

Molecular target: H4K16ac nucleosome
Assay: EMSA
Details: chain shown with the change

- Kd: 810 nM
B1: Sir3 BAH domain (construct 1–214), P06701 D205N (protein)
chain: MAKTLKDLDGWQVIITDDQGRVIDDNNRRRSRKRGGENVFLKRISDGLSFGKGESVIFNDNVTETYSVYLIHEIRLNTLNNVVEIWVFSYLRWFELKPKLYYEQFRPDLIKEDHPLEFYKDKFFNEVNKSELYLTAELSEIWLKDFIAVGQILPESQWNDSSIDKIEDRDFLVRYACEPTAEKFVPIDIFQIIRRVKEMEPKQSNEYLKRVSVP
